Assay results as given in publication PMC3859580, “The PS1 Hairpin of Mcm3 Is Essential for Viability and for DNA Unwinding In Vitro” (PLoS ONE, 2013).

B1: Mcm3 (wild type), subunit of Saccharomyces cerevisiae Mcm2-7 (natural protein, S. cerevisiae, UniProt P24279 1-971, looked up)
chain: MEGSTGFDGDATTFFAPDAVFGDRVRRFQEFLDTFTSYRDSVRSIQVYNSNNAANYNDDQDDADERDLLGDDDGDDLEKEKKAASSTSLNILPHRIIISLDDLREFDRSFWSGILVEPAYFIPPAEKALTDLADSMDDVPHPNASAVSSRHPWKLSFKGSFGAHALSPRTLTAQHLNKLVSVEGIVTKTSLVRPKLIRSVHYAAKTGRFHYRDYTDATTTLTTRIPTPAIYPTEDTEGNKLTTEYGYSTFIDHQRITVQEMPEMAPAGQLPRSIDVILDDDLVDKTKPGDRVNVVGVFKSLGAGGMNQSNSNTLIGFKTLILGNTVYPLHARSTGVAARQMLTDFDIRNINKLSKKKDIFDILSQSLAPSIYGHDHIKKAILLMLMGGVEKNLENGSHLRGDINILMVGDPSTAKSQLLRFVLNTASLAIATTGRGSSGVGLTAAVTTDRETGERRLEAGAMVLADRGVVCIDEFDKMTDVDRVAIHEVMEQQTVTIAKAGIHTTLNARCSVIAAANPVFGQYDVNRDPHQNIALPDSLLSRFDLLFVVTDDINEIRDRSISEHVLRTHRYLPPGYLEGEPVRERLNLSLAVGEDADINPEEHSNSGAGVENEGEDDEDHVFEKFNPLLQAGAKLAKNKGNYNGTEIPKLVTIPFLRKYVQYAKERVIPQLTQEAINVIVKNYTDLRNDDNTKKSPITARTLETLIRLATAHAKVRLSKTVNKVDAKVAANLLRFALLGEDIGNDIDEEESEYEEALSKRSPQKSPKKRQRVRQPASNSGSPIKSTPRRSTASSVNATPSSARRILRFQDDEQNAGEDDNDIMSPLPADEEAELQRRLQLGLRVSPRRREHLHAPEEGSSGPLTEVGTPRLPNVSSAGQDDEQQQSVISFDNVEPGTISTGRLSLISGIIARLMQTEIFEEESYPVASLFERINEELPEEEKFSAQEYLAGLKIMSDRNNLMVADDKVWRV
notes: source: E. coli, purified, reconstituted into Mcm2-7 as described [27]
B2: Mcm3_(K499A), Mcm3 with the PS1 hairpin mutation (natural protein, S. cerevisiae, UniProt P24279 1-971, looked up)
chain: MEGSTGFDGDATTFFAPDAVFGDRVRRFQEFLDTFTSYRDSVRSIQVYNSNNAANYNDDQDDADERDLLGDDDGDDLEKEKKAASSTSLNILPHRIIISLDDLREFDRSFWSGILVEPAYFIPPAEKALTDLADSMDDVPHPNASAVSSRHPWKLSFKGSFGAHALSPRTLTAQHLNKLVSVEGIVTKTSLVRPKLIRSVHYAAKTGRFHYRDYTDATTTLTTRIPTPAIYPTEDTEGNKLTTEYGYSTFIDHQRITVQEMPEMAPAGQLPRSIDVILDDDLVDKTKPGDRVNVVGVFKSLGAGGMNQSNSNTLIGFKTLILGNTVYPLHARSTGVAARQMLTDFDIRNINKLSKKKDIFDILSQSLAPSIYGHDHIKKAILLMLMGGVEKNLENGSHLRGDINILMVGDPSTAKSQLLRFVLNTASLAIATTGRGSSGVGLTAAVTTDRETGERRLEAGAMVLADRGVVCIDEFDKMTDVDRVAIHEVMEQQTVTIAAAGIHTTLNARCSVIAAANPVFGQYDVNRDPHQNIALPDSLLSRFDLLFVVTDDINEIRDRSISEHVLRTHRYLPPGYLEGEPVRERLNLSLAVGEDADINPEEHSNSGAGVENEGEDDEDHVFEKFNPLLQAGAKLAKNKGNYNGTEIPKLVTIPFLRKYVQYAKERVIPQLTQEAINVIVKNYTDLRNDDNTKKSPITARTLETLIRLATAHAKVRLSKTVNKVDAKVAANLLRFALLGEDIGNDIDEEESEYEEALSKRSPQKSPKKRQRVRQPASNSGSPIKSTPRRSTASSVNATPSSARRILRFQDDEQNAGEDDNDIMSPLPADEEAELQRRLQLGLRVSPRRREHLHAPEEGSSGPLTEVGTPRLPNVSSAGQDDEQQQSVISFDNVEPGTISTGRLSLISGIIARLMQTEIFEEESYPVASLFERINEELPEEEKFSAQEYLAGLKIMSDRNNLMVADDKVWRV
notes: Mcm3, S. cerevisiae, K499A; NdeI-SacI fragment of mcm3_(K499A)-YCplac111 in pET24a (pMD466); also called the Mcm3 subunit of Mcm2-7_(3K499A); source: E. coli BL21 DE3 Codon+, purified (ammonium sulfate, Q Sepharose, ssDNA-Sepharose, MonoQ, MonoS)

Assays:
Test in all cases: SEC; individual purified Mcm subunits mixed in equal molar ratios to reconstitute the hexameric complex; elution from a gel filtration column, fractions analysed by SDS-PAGE
Conditions in all cases: both partners purified
[1] = target: T1, Mcm6, subunit of Saccharomyces cerevisiae Mcm2-7 (S. cerevisiae, UniProt P53091 1-1017)
T1 construct: Mcm6, S. cerevisiae, recombinant subunit; source: E. coli, purified, reconstituted into Mcm2-7 as described [27]

[2] = target: B2
[3] = target: B1

T1 sequence (P53091 whole entry): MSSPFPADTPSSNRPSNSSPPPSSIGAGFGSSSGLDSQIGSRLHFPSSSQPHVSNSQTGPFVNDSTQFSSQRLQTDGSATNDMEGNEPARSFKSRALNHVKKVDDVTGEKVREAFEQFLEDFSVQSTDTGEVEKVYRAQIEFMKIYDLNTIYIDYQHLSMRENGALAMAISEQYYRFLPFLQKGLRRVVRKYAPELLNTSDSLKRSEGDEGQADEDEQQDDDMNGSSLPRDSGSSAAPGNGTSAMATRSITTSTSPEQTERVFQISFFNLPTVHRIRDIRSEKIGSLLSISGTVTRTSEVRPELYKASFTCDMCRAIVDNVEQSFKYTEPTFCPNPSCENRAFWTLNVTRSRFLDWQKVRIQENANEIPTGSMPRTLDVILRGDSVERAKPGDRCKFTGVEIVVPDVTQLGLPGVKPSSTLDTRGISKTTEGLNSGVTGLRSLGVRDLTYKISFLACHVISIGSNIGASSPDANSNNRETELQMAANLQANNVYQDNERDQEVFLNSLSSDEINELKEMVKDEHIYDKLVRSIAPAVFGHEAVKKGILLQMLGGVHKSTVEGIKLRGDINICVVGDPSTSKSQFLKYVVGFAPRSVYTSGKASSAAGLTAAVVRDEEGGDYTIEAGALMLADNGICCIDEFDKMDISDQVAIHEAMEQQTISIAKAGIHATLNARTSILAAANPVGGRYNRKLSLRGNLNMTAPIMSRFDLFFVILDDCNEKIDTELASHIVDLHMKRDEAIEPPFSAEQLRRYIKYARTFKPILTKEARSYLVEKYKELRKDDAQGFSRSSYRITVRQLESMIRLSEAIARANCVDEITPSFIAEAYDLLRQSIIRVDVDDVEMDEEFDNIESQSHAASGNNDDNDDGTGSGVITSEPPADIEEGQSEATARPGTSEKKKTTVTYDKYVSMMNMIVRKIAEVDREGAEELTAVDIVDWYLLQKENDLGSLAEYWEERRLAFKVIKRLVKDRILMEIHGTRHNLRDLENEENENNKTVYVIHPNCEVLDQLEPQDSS

| Binder | binding result [1] | binding result [2] | binding result [3] |
| --- | --- | --- | --- |
| B1 | binds |  |  |
| Mcm4, subunit of Saccharomyces cerevisiae Mcm2-7 (natural protein, S. cerevisiae, UniProt P30665 1-933, looked up, Mcm4, S. cerevisiae, recombinant subunit; source: E. coli, purified, reconstituted into Mcm2-7 as described [27]) MSQQSSSPTKEDNNSSSPVVPNPDSVPPQLSSPALFYSSSSSQGDIYGRNNSQNLSQGEGNIRAAIGSSPLNFPSSSQRQNSDVFQSQGRQGRIRSSASASGRSRYHSDLRSDRALPTSSSSLGRNGQNRVHMRRNDIHTSDLSSPRRIVDFDTRSGVNTLDTSSSSAPPSEASEPLRIIWGTNVSIQECTTNFRNFLMSFKYKFRKILDEREEFINNTTDEELYYIKQLNEMRELGTSNLNLDARNLLAYKQTEDLYHQLLNYPQEVISIMDQTIKDCMVSLIVDNNLDYDLDEIETKFYKVRPYNVGSCKGMRELNPNDIDKLINLKGLVLRSTPVIPDMKVAFFKCNVCDHTMAVEIDRGVIQEPARCERIDCNEPNSMSLIHNRCSFADKQVIKLQETPDFVPDGQTPHSISLCVYDELVDSCRAGDRIEVTGTFRSIPIRANSRQRVLKSLYKTYVDVVHVKKVSDKRLDVDTSTIEQELMQNKVDHNEVEEVRQITDQDLAKIREVAAREDLYSLLARSIAPSIYELEDVKKGILLQLFGGTNKTFTKGGRYRGDINILLCGDPSTSKSQILQYVHKITPRGVYTSGKGSSAVGLTAYITRDVDTKQLVLESGALVLSDGGVCCIDEFDKMSDSTRSVLHEVMEQQTISIAKAGIITTLNARSSILASANPIGSRYNPNLPVTENIDLPPPLLSRFDLVYLVLDKVDEKNDRELAKHLTNLYLEDKPEHISQDDVLPVEFLTMYISYAKEHIHPIITEAAKTELVRAYVGMRKMGDDSRSDEKRITATTRQLESMIRLAEAHAKMKLKNVVELEDVQEAVRLIRSAIKDYATDPKTGKIDMNLVQTGKSVIQRKLQEDLSREIMNVLKDQASDSMSFNELIKQINEHSQDRVESSDIQEALSRLQQEDKVIVLGEGVRRSVRLNNRV |  | binds | binds |
| Mcm7, subunit of Saccharomyces cerevisiae Mcm2-7 (natural protein, S. cerevisiae, UniProt P38132 1-845, looked up, Mcm7, S. cerevisiae, recombinant subunit; source: E. coli, purified, reconstituted into Mcm2-7 as described [27]) MSAALPSIQLPVDYNNLFNEITDFLVTFKQDTLSSDATRNENEDENLDAENIEQHLLEKGPKYMAMLQKVANRELNSVIIDLDDILQYQNEKFLQGTQADDLVSAIQQNANHFTELFCRAIDNNMPLPTKEIDYKDDVLDVILNQRRLRNERMLSDRTNEIRSENLMDTTMDPPSSMNDALREVVEDETELFPPNLTRRYFLYFKPLSQNCARRYRKKAISSKPLSVRQIKGDFLGQLITVRGIITRVSDVKPAVEVIAYTCDQCGYEVFQEVNSRTFTPLSECTSEECSQNQTKGQLFMSTRASKFSAFQECKIQELSQQVPVGHIPRSLNIHVNGTLVRSLSPGDIVDVTGIFLPAPYTGFKALKAGLLTETYLEAQFVRQHKKKFASFSLTSDVEERVMELITSGDVYNRLAKSIAPEIYGNLDVKKALLLLLVGGVDKRVGDGMKIRGDINVCLMGDPGVAKSQLLKAICKISPRGVYTTGKGSSGVGLTAAVMKDPVTDEMILEGGALVLADNGICCIDEFDKMDESDRTAIHEVMEQQTISISKAGINTTLNARTSILAAANPLYGRYNPRLSPLDNINLPAALLSRFDILFLMLDIPSRDDDEKLAEHVTYVHMHNKQPDLDFTPVEPSKMREYIAYAKTKRPVMSEAVNDYVVQAYIRLRQDSKREMDSKFSFGQATPRTLLGIIRLSQALAKLRLADMVDIDDVEEALRLVRVSKESLYQETNKSKEDESPTTKIFTIIKKMLQETGKNTLSYENIVKTVRLRGFTMLQLSNCIQEYSYLNVWHLINEGNTLKFVDDGTMDTDQEDSLVSTPKLAPQTTASANVSAQDSDIDLQDA |  | binds | binds |
| Mcm2, subunit of Saccharomyces cerevisiae Mcm2-7 (natural protein, S. cerevisiae, UniProt P29469 1-868, looked up, Mcm2, S. cerevisiae, recombinant subunit; source: E. coli, purified, reconstituted into Mcm2-7 as described [27]) MSDNRRRRREEDDSDSENELPPSSPQQHFRGGMNPVSSPIGSPDMINPEGDDNEVDDVPDIDEVEEQMNEVDLMDDNMYEDYAADHNRDRYDPDQVDDREQQELSLSERRRIDAQLNERDRLLRNVAYIDDEDEEQEGAAQLDEMGLPVQRRRRRRQYEDLENSDDDLLSDMDIDPLREELTLESLSNVKANSYSEWITQPNVSRTIARELKSFLLEYTDETGRSVYGARIRTLGEMNSESLEVNYRHLAESKAILALFLAKCPEEMLKIFDLVAMEATELHYPDYARIHSEIHVRISDFPTIYSLRELRESNLSSLVRVTGVVTRRTGVFPQLKYVKFNCLKCGSILGPFFQDSNEEIRISFCTNCKSKGPFRVNGEKTVYRNYQRVTLQEAPGTVPPGRLPRHREVILLADLVDVSKPGEEVEVTGIYKNNYDGNLNAKNGFPVFATIIEANSIKRREGNTANEGEEGLDVFSWTEEEEREFRKISRDRGIIDKIISSMAPSIYGHRDIKTAVACSLFGGVPKNVNGKHSIRGDINVLLLGDPGTAKSQILKYVEKTAHRAVFATGQGASAVGLTASVRKDPITKEWTLEGGALVLADKGVCLIDEFDKMNDQDRTSIHEAMEQQSISISKAGIVTTLQARCSIIAAANPNGGRYNSTLPLAQNVSLTEPILSRFDILCVVRDLVDEEADERLATFVVDSHVRSHPENDEDREGEELKNNGESAIEQGEDEINEQLNARQRRLQRQRKKEEEISPIPQELLMKYIHYARTKIYPKLHQMDMDKVSRVYADLRRESISTGSFPITVRHLESILRIAESFAKMRLSEFVSSYDLDRAIKVVVDSFVDAQKVSVRRQLRRSFAIYTLGH |  | binds | binds |
| B2 | binds |  |  |
